The target of assay [1] is T1, biotinylated recombinant human Arginase 2 (human, UniProt P78540 23-354, biotin (biotinylated; site not stated)).
T1 chain: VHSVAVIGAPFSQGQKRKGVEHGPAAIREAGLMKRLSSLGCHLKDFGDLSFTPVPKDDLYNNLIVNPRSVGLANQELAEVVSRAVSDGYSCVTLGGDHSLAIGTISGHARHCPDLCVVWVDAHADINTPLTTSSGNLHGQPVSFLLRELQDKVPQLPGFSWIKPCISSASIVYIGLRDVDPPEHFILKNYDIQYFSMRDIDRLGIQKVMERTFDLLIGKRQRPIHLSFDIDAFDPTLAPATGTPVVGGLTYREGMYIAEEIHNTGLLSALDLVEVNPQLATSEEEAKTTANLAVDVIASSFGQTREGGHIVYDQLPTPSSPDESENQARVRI
Put plainly: BLI.

In assay [2] the target is T1, biotinylated recombinant human Arginase …. Put plainly: BLI.

B1: Fab C0021181 (Fab, V domains shown)
VH: EVQLLESGGGLVRPGGSLRLSCAASEFTFRYDYHVWVRQAPGKGLEWVSAISGSGGSTYYADSVKSRFTISRDNSKNTLYLQMNSLRAEDTAVYYCARLRADLGLYMDLWGRGTLVTVSS
VL: QSVLTQPPSVSAAPGQKVAVSCSGSSSNIGSHYVSWYQQLPGTAPKLLIYDNSERTSGIPDRFSGSKSGTSATLGITGLQTGDEADYYCGTWDELTSNLVFGGGTRLTVL
Consider B1, for which the off-rate constant (koff) in assay [1] was 4.2e-05 s⁻¹. Also, in assay [2], the dissociation constant (Kd) was determined as 0.29 nM.

B2: Fab C0021177 (Fab, V domains shown)
VH: EVQLLESGGGLVQPGGSLRLSCAASGFTFRYEVAAWVRQAPGKGLEWVSAISGPAPKGYYADSVKGRFTISRDNSKNTLYLQMNSLRAEDTAVYYCARLRADLGLYMDLWGRGTLVTVSS
VL: QSELTQPPTASAAPGQKVTISCSGSSSNIGNHYVSWYQQLPGTAPKLLIYDTTVLSSGIPDRFSGSKSGTSATLGITGLQTGDEADYYCGTWDELTSNLVFGGGTKLTVL
For B2, the koff in assay [1] was found to be 3.5e-05 s⁻¹. Further, the Kd in assay [2] came to 0.17 nM.

B3: Fab C0021139 (Fab, V domains shown)
VH: EVQLLESGGGLVQPGGSLRLSCAASGFTFQYDYQVWVRQAPGKGLEWVSAISGSGGSTYYADSVKGRFTISRDNSKNTLYLQMNSLRAEDTAVYYCARLRADLGLYMDLWGRGTLVTVSS
VL: QSVLTQPPSVSAAPGQKVTISCSGSSSNIGNHYVSWYQQLPGTAPKLLIYDNSERTSGIPDRFSGSKSGTSATLGITGLQTGDEADYYCGTWDELTSNLVFGGGTKLTVL
As for B3, the koff in assay [1] was 0.00087 s⁻¹. Also, the Kd in assay [2] came out at 4.4 nM.

B4: Fab C0021133 (Fab, V domains shown)
VH: EVQLLESGGGLVQPGGSLRLSCAASGFTFRYDHHVWVRQAPGKGLEWVSAISGSGGSTYYADSVKGRFTISRDNSKNTLYLQMNSLRAEDTAVYYCARLRADLGLYMDLWGRGTLVTVSS
VL: QSVLTQPPSVSAAPGQKVTVSCSGSSSNIGNHYVSWYQQLPGTAPKLLIYDTTVLSSGIPDRFSGSKSGTSATLGITGLQTGDEADYYCGTWDELTSNLVFGGGTKLTVL
In the case of B4, in assay [1], the koff turned out to be 0.00045 s⁻¹. The equilibrium dissociation constant (Kd) in assay [2] came to 2.1 nM.

B5: Fab C0021128 (Fab, V domains shown)
VH: EVQLLESGGGLVQPGGSLRLSCAASGFTFQYEVAAWVRQAPGKGLEWVSAISGPIPKGYYADSVKGRFTISRDNSKNTLYLQMNSLRAEDTAVYYCARLRADLGLYMDLWGRGTLVTVSS
VL: QSVLTQPPSVSAAPGQKVTISCSGSSSNIGNHYVSWYQQLPGTAPKLLIYDNAIESSGIPDRFSGSKSGTSATLGITGLQTGDGADYYCGTWDSNLSALVFGGGTKLTVL
On to B5, for which the dissociation rate constant (koff) in assay [1] came out at 0.00067 s⁻¹. In assay [2], the dissociation constant Kd came out at 2.5 nM.

B6: Fab C0021158 (Fab, V domains shown)
VH: EVQLLESGGGLVQPGGSLRLSCAASGFTFRYEVAAWVRQAPGKGLEWVSAISGPIPKGYYADSVKGRFTISRDNSKNTLYLQMNSLRAEDTAVYYCARLRADLGLYMDLWGRGTLVTVSS
VL: QSVLTQPPSVSAAPGQKVTISCSGSSSNIGNHYVSWYQQLPGTAPKLLIYDNSERTAGVPDRFSGSKSGTSATLGITGLQTGDEADYYCGTWDELTSNLVFGGGTKLTVL
B6: in assay [1], the koff stood at 4.5e-05 s⁻¹. Besides, in assay [2], the dissociation constant Kd was determined as 0.17 nM.

A word on the koff: it is the rate constant with which the complex falls apart. By Kd is commonly meant the concentration at which binding is half-saturated.

Source of the values: article PMC7382286 (2020).
